Measurements as given in patent publication US20250320281A1.

Legend:
Experiment in all cases: cell-based or functional assay
[1] = target: HIV-1 APV-13 envelope glycoprotein (Env) on pseudovirus (HIV-1)
[2] = target: HIV-1 Env of isolate 92UG024 (clade D pseudovirus) (HIV-1)
[3] = target: HIV-1 Env of isolate 93IN905 (HIV-1)
[4] = target: HIV-1 Env of isolate MGRM-Chronic-B-001, clade B, on pseudovirus (HIV-1)
[5] = target: HIV-1 Env of isolate MGRM-D-004 (clade D pseudovirus) (HIV-1)
[6] = target: HIV-1 Env of isolate THR0.18 (Acute), clade B, on pseudovirus (HIV-1)
[7] = target: HIV-1 Env of isolate VLGCB3, clade B, on pseudovirus (HIV-1)
[8] = target: HIV-1 Env of pseudovirus MGRM-AG-009 (clade CRF_AG) (HIV-1)
[9] = target: HIV-1 Env of pseudovirus MGRM-Chronic-B-017 (HIV-1)
[10] = target: HIV-1 Env of pseudovirus MGRM-G-016 (HIV-1, clade G isolate MGRM-G-016)
[11] = target: HIV-1 Env of pseudovirus MGRM-G-025 (HIV-1, clade G isolate MGRM-G-025)
[12] = target: HIV-1 envelope glycoprotein (Env) of isolate 92UG037, clade A (HIV-1)
[13] = target: HIV-1 envelope glycoprotein (Env) of isolate 93UG077, clade A (HIV-1)
[14] = target: HIV-1 envelope glycoprotein (Env) of isolate MGRM-A-002, clade A (HIV-1)
[15] = target: HIV-1 APV17 Env (pseudovirus, clade B) (HIV-1)
[16] = target: HIV-1 Env of isolate 92TH021 (subtype AE) (HIV-1)
[17] = target: HIV-1 Env of isolate 92UG114 (HIV-1)
[18] = target: HIV-1 Env of isolate 94KE105 (subtype AC) (HIV-1)
[19] = target: HIV-1 Env of isolate 94UG103 (HIV-1)
[20] = target: HIV-1 Env of isolate MGRM-A-007 (subtype A) (HIV-1)
[21] = target: HIV-1 Env of isolate MGRM-A-014 (subtype A) (HIV-1)
[22] = target: HIV-1 Env of isolate MGRM-AG-003 (subtype AG) (HIV-1)
[23] = target: HIV-1 Env of isolate MGRM-AG-013 (subtype AG) (HIV-1)
[24] = target: HIV-1 Env of isolate MGRM-C-002 (subtype C) (HIV-1)
[25] = target: HIV-1 Env of isolate MGRM-Chronic-B-003 (subtype B) (HIV-1)
[26] = target: HIV-1 Env of isolate MGRM-Chronic-B-004 (subtype B) (HIV-1)
[27] = target: HIV-1 Env of isolate MGRM-Chronic-B-023 (subtype B) (HIV-1)
[28] = target: HIV-1 Env of isolate SC422661.8 (subtype B) (HIV-1)
[29] = target: HIV-1 Env of isolate TRO.11 (subtype B) (HIV-1)
[30] = target: HIV-1 JRFL Env (pseudovirus) (HIV-1)
[31] = target: HIV-1 envelope glycoprotein (Env) of isolate MGRM-C-017 (HIV-1)
[32] = target: HIV-1 envelope glycoprotein (Env) of isolate MGRM-C-019 (HIV-1)
[33] = target: aMLV envelope (pseudovirus, negative control)
[34] = target: aMLV envelope, on pseudovirus (negative control virus)

Sequence of 1443_C16 (PG16) (TCN-116) (antibody) (VH): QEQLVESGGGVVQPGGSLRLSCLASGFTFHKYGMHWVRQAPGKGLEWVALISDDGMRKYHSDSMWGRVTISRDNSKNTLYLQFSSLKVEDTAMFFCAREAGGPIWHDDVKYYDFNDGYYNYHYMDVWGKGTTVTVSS
Sequence of 1443_C16 (PG16) (TCN-116) (antibody) (VL): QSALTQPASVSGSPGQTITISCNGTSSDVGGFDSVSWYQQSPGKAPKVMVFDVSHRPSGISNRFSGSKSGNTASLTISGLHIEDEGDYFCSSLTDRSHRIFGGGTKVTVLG
Sequence of 5329_C19 (PGT-136) (antibody) (VH): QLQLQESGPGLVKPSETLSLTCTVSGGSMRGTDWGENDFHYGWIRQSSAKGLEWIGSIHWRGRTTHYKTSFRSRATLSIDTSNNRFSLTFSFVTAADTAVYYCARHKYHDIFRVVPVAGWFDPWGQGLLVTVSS
Sequence of 5329_C19 (PGT-136) (antibody) (VL): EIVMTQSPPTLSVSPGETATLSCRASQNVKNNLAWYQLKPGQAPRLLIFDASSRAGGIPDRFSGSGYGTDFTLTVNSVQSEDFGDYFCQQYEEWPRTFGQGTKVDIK

## 4E10 (antibody)
[1]
  IC50, pseudovirus neutralization: 3.8 µg/mL
[2]
  IC50 (µg/ml), pseudovirus neutralization: 2.17 µg/mL
[3]
  IC50: 1.26 µg/mL
[4]
  IC50 (µg/ml), pseudovirus neutralization: 1.46 µg/mL
[5]
  IC50 (µg/ml), pseudovirus neutralization: 1.58 µg/mL
[6]
  IC50 (µg/ml), pseudovirus neutralization: 4.68 µg/mL
[7]
  IC50 (µg/ml), pseudovirus neutralization: 5.76 µg/mL
[8]
  IC50: 31.4 µg/mL
[9]
  IC50 (µg/ml), pseudovirus neutralization: 2.77 µg/mL
[10]
  IC50 (µg/ml), pseudovirus neutralization: 1.02 µg/mL
[11]
  IC50 (µg/ml), pseudovirus neutralization: 1.7 µg/mL
[12]
  IC50 (µg/ml), pseudovirus neutralization: 8.84 µg/mL
[13]
  IC50 (µg/ml), pseudovirus neutralization: 10.6 µg/mL
[14]
  IC50 (µg/ml), pseudovirus neutralization: 6.45 µg/mL

## 5147_N06 (PGT-130) (antibody)
[15]
  IC50 neutralization: > 10 µg/mL
[16]
  IC50 (µg/mL), pseudovirus neutralization: 0.009 µg/mL
[17]
  IC50 (µg/mL), pseudovirus neutralization: > 50 µg/mL
[18]
  IC50 (µg/mL), pseudovirus neutralization: 0.004 µg/mL
[19]
  IC50: 1.4 µg/mL
[20]
  IC50 (µg/mL), pseudovirus neutralization: > 50 µg/mL
[21]
  IC50 (µg/mL), pseudovirus neutralization: 0.161 µg/mL
[22]
  IC50 (µg/mL), pseudovirus neutralization: 0.041 µg/mL
[23]
  IC50 (µg/mL), pseudovirus neutralization: 0.01 µg/mL
[24]
  IC50 neutralization: > 50 µg/mL
[25]
  IC50 neutralization: > 50 µg/mL
[26]
  IC50 neutralization: 0.01 µg/mL
[27]
  IC50 neutralization: > 50 µg/mL
[28]
  IC50 neutralization: > 50 µg/mL
[29]
  IC50 neutralization: 0.257 µg/mL
[30]
  Neutralization by PGT-130, IC50: 0.0346 µg/mL
  Neutralization by PGT-130, IC80: 0.751 µg/mL
  Neutralization by PGT-130, IC90: 5.72 µg/mL
  Neutralization by PGT-130, IC95: > 10 µg/mL
  neutralization IC50 (pseudovirus): 0.0346 µg/mL
[31]
  IC50 (µg/mL), pseudovirus neutralization: > 50 µg/mL
[32]
  IC50 (µg/mL), pseudovirus neutralization: 0.01 µg/mL
[33]
  Neutralization by PGT-130, IC50: > 10 µg/mL
  Neutralization by PGT-130, IC80: > 10 µg/mL
  Neutralization by PGT-130, IC90: > 10 µg/mL
  Neutralization by PGT-130, IC95: > 10 µg/mL
  neutralization IC50 (pseudovirus): > 10 µg/mL
[34]
  IC50, pseudovirus neutralization: > 10 µg/mL

## 1443_C16 (PG16) (TCN-116) (antibody)
[1]
  IC50, pseudovirus neutralization: > 50 µg/mL
[2]
  IC50 (µg/ml), pseudovirus neutralization: 24 µg/mL
[3]
  IC50: 0.25 µg/mL
[4]
  IC50 (µg/ml), pseudovirus neutralization: > 50 µg/mL
[5]
  IC50 (µg/ml), pseudovirus neutralization: 0.01 µg/mL
[6]
  IC50 (µg/ml), pseudovirus neutralization: 1.34 µg/mL
[7]
  IC50 (µg/ml), pseudovirus neutralization: 0.4 µg/mL
[8]
  IC50: > 50 µg/mL
[9]
  IC50 (µg/ml), pseudovirus neutralization: 0.02 µg/mL
[10]
  IC50 (µg/ml), pseudovirus neutralization: 11.3 µg/mL
[11]
  IC50 (µg/ml), pseudovirus neutralization: > 50 µg/mL
[12]
  IC50 (µg/ml), pseudovirus neutralization: 0.01 µg/mL
[13]
  IC50 (µg/ml), pseudovirus neutralization: > 50 µg/mL
[14]
  IC50 (µg/ml), pseudovirus neutralization: 0.004 µg/mL

## b12 (antibody)
[1]
  IC50, pseudovirus neutralization: > 25 µg/mL
[2]
  IC50 (µg/ml), pseudovirus neutralization: 45.6 µg/mL
[3]
  IC50: 21.4 µg/mL
[4]
  IC50 (µg/ml), pseudovirus neutralization: 0.75 µg/mL
[5]
  IC50 (µg/ml), pseudovirus neutralization: > 50 µg/mL
[6]
  IC50 (µg/ml), pseudovirus neutralization: 3.62 µg/mL
[7]
  IC50 (µg/ml), pseudovirus neutralization: 0.15 µg/mL
[8]
  IC50: > 50 µg/mL
[9]
  IC50 (µg/ml), pseudovirus neutralization: 2.59 µg/mL
[10]
  IC50 (µg/ml), pseudovirus neutralization: > 50 µg/mL
[11]
  IC50 (µg/ml), pseudovirus neutralization: > 50 µg/mL
[12]
  IC50 (µg/ml), pseudovirus neutralization: > 50 µg/mL
[13]
  IC50 (µg/ml), pseudovirus neutralization: 47 µg/mL
[14]
  IC50 (µg/ml), pseudovirus neutralization: > 50 µg/mL

## 5329_C19 (PGT-136) (antibody)
[15]
  IC50 neutralization: > 10 µg/mL
[16]
  IC50 (µg/mL), pseudovirus neutralization: > 50 µg/mL
[17]
  IC50 (µg/mL), pseudovirus neutralization: > 50 µg/mL
[18]
  IC50 (µg/mL), pseudovirus neutralization: > 50 µg/mL
[19]
  IC50: > 50 µg/mL
[20]
  IC50 (µg/mL), pseudovirus neutralization: > 50 µg/mL
[21]
  IC50 (µg/mL), pseudovirus neutralization: > 50 µg/mL
[22]
  IC50 (µg/mL), pseudovirus neutralization: > 50 µg/mL
[23]
  IC50 (µg/mL), pseudovirus neutralization: > 50 µg/mL
[24]
  IC50 neutralization: > 50 µg/mL
[25]
  IC50 neutralization: > 50 µg/mL
[26]
  IC50 neutralization: > 50 µg/mL
[27]
  IC50 neutralization: > 50 µg/mL
[28]
  IC50 neutralization: > 50 µg/mL
[29]
  IC50 neutralization: 0.073 µg/mL
[30]
  IC50 (neutralizing activity, pseudovirus): > 10 µg/mL
[31]
  IC50 (µg/mL), pseudovirus neutralization: > 50 µg/mL
[32]
  IC50 (µg/mL), pseudovirus neutralization: 20.1 µg/mL
[34]
  IC50, pseudovirus neutralization: > 10 µg/mL

## 2F5 (antibody)
[1]
  IC50, pseudovirus neutralization: 2.8 µg/mL
[2]
  IC50 (µg/ml), pseudovirus neutralization: 0.95 µg/mL
[3]
  IC50: > 50 µg/mL
[4]
  IC50 (µg/ml), pseudovirus neutralization: 0.55 µg/mL
[5]
  IC50 (µg/ml), pseudovirus neutralization: 2.3 µg/mL
[6]
  IC50 (µg/ml), pseudovirus neutralization: > 50 µg/mL
[7]
  IC50 (µg/ml), pseudovirus neutralization: > 50 µg/mL
[8]
  IC50: 24.8 µg/mL
[9]
  IC50 (µg/ml), pseudovirus neutralization: > 50 µg/mL
[10]
  IC50 (µg/ml), pseudovirus neutralization: 16.8 µg/mL
[11]
  IC50 (µg/ml), pseudovirus neutralization: > 50 µg/mL
[12]
  IC50 (µg/ml), pseudovirus neutralization: 3.24 µg/mL
[13]
  IC50 (µg/ml), pseudovirus neutralization: 3.3 µg/mL
[14]
  IC50 (µg/ml), pseudovirus neutralization: > 50 µg/mL

## 2G12 (antibody)
[1]
  IC50, pseudovirus neutralization: 23.9 µg/mL
[2]
  IC50 (µg/ml), pseudovirus neutralization: 0.42 µg/mL
[3]
  IC50: > 50 µg/mL
[4]
  IC50 (µg/ml), pseudovirus neutralization: 0.08 µg/mL
[5]
  IC50 (µg/ml), pseudovirus neutralization: > 50 µg/mL
[6]
  IC50 (µg/ml), pseudovirus neutralization: > 50 µg/mL
[7]
  IC50 (µg/ml), pseudovirus neutralization: 7.9 µg/mL
[8]
  IC50: > 50 µg/mL
[9]
  IC50 (µg/ml), pseudovirus neutralization: > 50 µg/mL
[10]
  IC50 (µg/ml), pseudovirus neutralization: > 50 µg/mL
[11]
  IC50 (µg/ml), pseudovirus neutralization: 31.9 µg/mL
[12]
  IC50 (µg/ml), pseudovirus neutralization: 45.2 µg/mL
[13]
  IC50 (µg/ml), pseudovirus neutralization: > 50 µg/mL
[14]
  IC50 (µg/ml), pseudovirus neutralization: > 50 µg/mL

## 1495_C14 (PGC14) (antibody)
[1]
  IC50, pseudovirus neutralization: > 50 µg/mL
[2]
  IC50 (µg/ml), pseudovirus neutralization: > 50 µg/mL
[3]
  IC50: 19 µg/mL
[4]
  IC50 (µg/ml), pseudovirus neutralization: > 50 µg/mL
[5]
  IC50 (µg/ml), pseudovirus neutralization: > 50 µg/mL
[6]
  IC50 (µg/ml), pseudovirus neutralization: > 50 µg/mL
[7]
  IC50 (µg/ml), pseudovirus neutralization: 21 µg/mL
[8]
  IC50: > 50 µg/mL
[9]
  IC50 (µg/ml), pseudovirus neutralization: > 50 µg/mL
[10]
  IC50 (µg/ml), pseudovirus neutralization: > 50 µg/mL
[11]
  IC50 (µg/ml), pseudovirus neutralization: > 50 µg/mL
[12]
  IC50 (µg/ml), pseudovirus neutralization: > 50 µg/mL
[13]
  IC50 (µg/ml), pseudovirus neutralization: > 50 µg/mL
[14]
  IC50 (µg/ml), pseudovirus neutralization: > 50 µg/mL
